Five proteins from paper PMC4543561 can be followed below.

Substrate in data set [1]: C[C@H](CCC(=O)O)[C@H]1CC[C@H]2[C@@H]3CC[C@@H]4CC(=O)CC[C@]4(C)[C@H]3C[C@H](O)[C@]12C
Briefly: purified protein. The following applies: reduction, 10 mM MOPS pH 7.0, 37 °C.

Substrate in data set [2]: C[C@H](CCC(=O)O)[C@H]1CC[C@H]2[C@@H]3CC[C@@H]4C[C@H](O)CC[C@]4(C)[C@H]3C[C@H](O)[C@]12C
Briefly: purified protein. Conditions: oxidation, 10 mM MOPS pH 7.0, 37 °C.

B1: Elen_0198 (Eggerthella lenta DSM 2243) (protein)
chain: MYDDLKGKTVVVTGSSKGLGAAMARRFGAEGMNVVANYRSDEEGARETVRAIEEAGGAAAAVQADVSKNECVDALFDAAMFSFGGVDIWVNNAGIEVASPSDRKSIEEWQRVIDVNLTGVFAGCRRAIDHFLDRKMPGVIINLSSVHEIIPWPHFADYAASKAGVGMLTKTLALEYADRGIRVNAIAPGAMNTPINAEKFADPEARAATERLIPMGYVGAPEDVAAAAAWLASDQASYVTGTTLFVDGGMTLYPGFQFGQG
For the protein B1, in data set [1] (cofactor NADH), the Km – broadly, the substrate concentration at which the rate is half of its maximum – turned out to be 2660 ± 539 µM and the kcat (commonly the maximal rate divided by the concentration of active sites) was found to be 9.73 ± 0.583 s⁻¹.

B2: Elen_0690 (Eggerthella lenta DSM 2243) (protein)
chain: MGIYVITGATSGIGAKTAEILRERGHEVVNIDLNGGDINANLATKEGRAGAIAELHERFPEGIDAMICNAGVSGGKVPISLIISLNYFGATEMARGVFDLLEKKGGSCVVTSSNSIAQGAARMDVAGMLNNHADEDRILELVKDVDPAIGHVYYASTKYALARWVRRMSPDWGSRGVRLNAIAPGNVRTAMTANMLPEQRAAMEAIPVPTHFGEEPLMDPVEIANAMAFIASPEASGINGVVLFVDGGTDALLNSEKVY
Consider B2, for which, in data set [2] (cofactor NAD+), the Km came to 1280 ± 88 µM and the kcat turned out to be 4.85 ± 0.117 s⁻¹.

B3: Elen_1325 (Eggerthella lenta DSM 2243) (protein)
chain: MSEARHNPVLAGQTAVITGGASGIGKSIVQRFLEAGASCLAADLNEEALAALKQELAEYGDKLDVVKVDVSNRDDVEGMVDRAVQTFGQMDIIVNNAGIMDNLLPIAEMDDDVWERLMKVNLNSVMYGTRKAVRYFMERGEGGVIINTASLSGLCAGRGGCAYTASKFAVVGLTKNVAFMYADTGIRCNAICPGNTQTNIGVGMRQPSERGMAKATTGYAGATRSGTPEEISAAAAFLASDQAGFINGETLTIDGGWSAY
As for B3, in data set [1] (cofactor NADH), the Km amounted to 2630 ± 365 µM and the kcat was determined as 29.2 ± 1.1 s⁻¹.

B4: Rumgna_00694 (Mediterraneibacter gnavus ATCC 29149) (protein)
chain: MNFGGFIMGRFDEKIMLVTGATSGIGRAVAIRAAKEGATVVAVGRNEERGAAVVAAMEEAGGKGEFMKCDVSNKDAVKALFAEIQEKYGKLDVAVNNAGIVGASKTVEELEDDDWFQVIDANLNSCFFCCREEVKLMQPSGGAIVNVSSVAGMRGFPSAAAYVASKHAVSGLTKAVAVDYATKGITCNAICPAGTDTPLTERSSADIKTRMAEIAAQGKDPMEWLKNSMLSGKTETLQKKNATPEEQAATILYFASDEARHITGSIVASDGGFTTY
B4: in data set [1] (cofactor NADPH), the Km is given as 56.0 ± 5.6 µM and the kcat was found to be 157 ± 4.53 s⁻¹.

B5: Rumgna_02133 (Mediterraneibacter gnavus ATCC 29149) (protein)
chain: MFMMLKNKVAIVTGGTRGIGFAVVKKFIENGAAVSLWGSRQETVDQALEQLKELYPDAKISGKYPSLKDTAQVTAMINQVKEEFGAVDILVNNAGISQSTSFYNYQPEEFQKIVDLNVTAVFNCSQAAAKIMKEQGGGVILNTSSMVSIYGQPSGCGYPASKFAVNGLTKSLARELGCDNIRVNAVAPGITRTDMVAALPEAVIKPLIATIPLGRVGEPEDIANAFLFLASDMASYVTGEILSVDGAARS
As for B5, in data set [2] (cofactor NADP+), the Km was determined as 369 ± 30 µM and the kcat worked out at 1.66 ± 0.0333 s⁻¹.
